Assay results as given in paper PMC10247153 (2022).
Each block holds one binder with its values, some of them ahead of it. No end group written: not given here. Me3 = trimethyl; Me2 = dimethyl

Columns and labels:
[1] = biological target: T1, PHD1 (KDM5C residues 318–378) (human, UniProt P41229-1 318-378); experiment: NMR; lower limit, from I361
T1 chain: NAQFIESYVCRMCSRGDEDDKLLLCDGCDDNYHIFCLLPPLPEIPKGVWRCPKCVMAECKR

[2] = biological target: T1, PHD1 (KDM5C residues 318–378); experiment: NMR; from I361
[3] = biological target: T2, Avitag-PHD1 (human, UniProt P41229-1 318-378, not fully specified; biotin on the Avitag (BirA co-expression)); experiment: BLI; dissociation kobs1 (two phase)
T2 chain: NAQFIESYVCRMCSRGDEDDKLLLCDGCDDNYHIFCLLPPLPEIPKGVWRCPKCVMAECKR

[4] = biological target: T2, Avitag-PHD1; experiment: BLI; dissociation kobs2 (two phase)
[5] = biological target: T1, PHD1 (KDM5C residues 318–378); experiment: NMR; from D343
[6] = biological target: T3, PHD1 D343A mutant (human, UniProt P41229-1 318-378, D343A); experiment: NMR; lower limit, from I361
T3 sequence: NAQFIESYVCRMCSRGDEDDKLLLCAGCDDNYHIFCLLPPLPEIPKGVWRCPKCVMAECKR

[7] = biological target: T4, unmodified 147 bp mononucleosome (human, UniProt P68431 1-136); experiment: apparent, EMSA
[8] = biological target: T5, unmodified 187 bp mononucleosome (human, UniProt P68431 1-136); experiment: apparent, EMSA
[9] = biological target: T4, unmodified 147 bp mononucleosome; experiment: apparent, EMSA, lower limit
[10] = biological target: T5, unmodified 187 bp mononucleosome; experiment: apparent, EMSA, lower limit
[11] = biological target: T4, unmodified 147 bp mononucleosome; experiment: apparent Kd, EMSA, lower limit
[12] = biological target: T4, unmodified 147 bp mononucleosome; experiment: apparent Kd, EMSA, lower limit; remark: listed apart in the source

Kd [1]: > 900 µM
Binder: ARTK(Me2)QTARKSTGGKAPRK [H3K4me2 (1–18) peptide]

Kd [2]: 313 µM
Binder: ARTK(Me)QTARKSTGGKAPRK [H3K4me1 (1–18) peptide]

koff [3]: 2.2 s⁻¹
koff [4]: 0.04 s⁻¹
Binder: Ac-KEELSHSPEPCTKMTMRLRR-NH2 [KDM5C (295–314) peptide]

Kd [5]: 140 µM
Kd [6]: > 1450 µM
Binder: ARTKQTARKSTGGKAPRK [H3 (1–18) tail peptide]

Kd [7]: 31 µM
Kd [8]: 22 µM
B1: ARID (KDM5C residues 73–188) (domain or fragment)
chain: NELEAQTRVKLNYLDQIAKFWEIQGSSLKIPNVERRILDLYSLSKIVVEEGGYEAICKDRRWARVAQRLNYPPGKNIGSLLRSHYERIVYPYEMYQSGANLVQCNTRPFDNEEKDK

Kd [9]: > 35 µM
Kd [10]: > 42 µM
Kd [11]: > 35 µM
B2: KDM5C^(1–839 ΔAP) (domain or fragment)
chain: MEPGSDDFLPPPECPVFEPSWAEFRDPLGYIAKIRPIAEKSGICKIRPPADWQPPFAVEVDNFRFTPRIQRLNELEAQTRVKGGGGPPEAFGFEQATREYTLQSFGEMADSFKADYFNMPVHMVPTELVEKEFWRLVNSIEEDVTVEYGADIHSKEFGSGFPVSDSKRHLTPEEEEYATSGWNLNVMPVLEQSVLCHINADISGMKVPWLYVGMVFSAFCWHIEDHWSYSINYLHWGEPKTWYGVPSLAAEHLEEVMKKLTPELFDSQPDLLHQLVTLMNPNTLMSHGVPVVRTNQCAGEFVITFPRAYHSGFNQGYNFAEAVNFCTADWLPAGRQCIEHYRRLRRYCVFSHEELICKMAACPEKLDLNLAAAVHKEMFIMVQEERRLRKALLEKGITEAEREAFELLPDDERQCIKCKTTCFLSALACYDCPDGLVCLSHINDLCKCSSSRQYLRYRYTLDELPAMLHKLKVRAESFDTWANKVRVALEVEDGRKRSLEELRALESEARERRFPNSELLQQLKNCLSEAEACVSRALGLVSGQEAG

Kd [12]: > 45 µM
B3: KDM5C1-839 ΔAP A388P (protein)
chain: MEPGSDDFLPPPECPVFEPSWAEFRDPLGYIAKIRPIAEKSGICKIRPPADWQPPFAVEVDNFRFTPRIQRLNELEAQTRVKGGGGPPEAFGFEQPTREYTLQSFGEMADSFKADYFNMPVHMVPTELVEKEFWRLVNSIEEDVTVEYGADIHSKEFGSGFPVSDSKRHLTPEEEEYATSGWNLNVMPVLEQSVLCHINADISGMKVPWLYVGMVFSAFCWHIEDHWSYSINYLHWGEPKTWYGVPSLAAEHLEEVMKKLTPELFDSQPDLLHQLVTLMNPNTLMSHGVPVVRTNQCAGEFVITFPRAYHSGFNQGYNFAEAVNFCTADWLPAGRQCIEHYRRLRRYCVFSHEELICKMAACPEKLDLNLAAAVHKEMFIMVQEERRLRKALLEKGITEAEREAFELLPDDERQCIKCKTTCFLSALACYDCPDGLVCLSHINDLCKCSSSRQYLRYRYTLDELPAMLHKLKVRAESFDTWANKVRVALEVEDGRKRSLEELRALESEARERRFPNSELLQQLKNCLSEAEACVSRALGLVSGQEAG

Kd [8]: 6.3 µM
Kd [9]: > 15.1 µM
B4: KDM5C^1–839 K101A/R107A (domain or fragment)
chain: MEPGSDDFLPPPECPVFEPSWAEFRDPLGYIAKIRPIAEKSGICKIRPPADWQPPFAVEVDNFRFTPRIQRLNELEAQTRVKLNYLDQIAKFWEIQGSSLAIPNVEARILDLYSLSKIVVEEGGYEAICKDRRWARVAQRLNYPPGKNIGSLLRSHYERIVYPYEMYQSGANLVQCNTRPFDNEEKDKEYKPHSIPLRQSVQPSKFNSYGRRAKRLQPDPEPTEEDIEKNPELKKLQIYGAGPKMMGLGLMAKDKTLRKKDKEGPECPPTVVVKEELGGDVKVESTSPKTFLESKEELSHSPEPCTKMTMRLRRNHSNAQFIESYVCRMCSRGDEDDKLLLCDGCDDNYHIFCLLPPLPEIPKGVWRCPKCVMAECKRPPEAFGFEQATREYTLQSFGEMADSFKADYFNMPVHMVPTELVEKEFWRLVNSIEEDVTVEYGADIHSKEFGSGFPVSDSKRHLTPEEEEYATSGWNLNVMPVLEQSVLCHINADISGMKVPWLYVGMVFSAFCWHIEDHWSYSINYLHWGEPKTWYGVPSLAAEHLEEVMKKLTPELFDSQPDLLHQLVTLMNPNTLMSHGVPVVRTNQCAGEFVITFPRAYHSGFNQGYNFAEAVNFCTADWLPAGRQCIEHYRRLRRYCVFSHEELICKMAACPEKLDLNLAAAVHKEMFIMVQEERRLRKALLEKGITEAEREAFELLPDDERQCIKCKTTCFLSALACYDCPDGLVCLSHINDLCKCSSSRQYLRYRYTLDELPAMLHKLKVRAESFDTWANKVRVALEVEDGRKRSLEELRALESEARERRFPNSELLQQLKNCLSEAEACVSRALGLVSGQEAG

Kd [8]: 4.3 µM
B5: KDM5C^1–839 (domain or fragment)
chain: MEPGSDDFLPPPECPVFEPSWAEFRDPLGYIAKIRPIAEKSGICKIRPPADWQPPFAVEVDNFRFTPRIQRLNELEAQTRVKLNYLDQIAKFWEIQGSSLKIPNVERRILDLYSLSKIVVEEGGYEAICKDRRWARVAQRLNYPPGKNIGSLLRSHYERIVYPYEMYQSGANLVQCNTRPFDNEEKDKEYKPHSIPLRQSVQPSKFNSYGRRAKRLQPDPEPTEEDIEKNPELKKLQIYGAGPKMMGLGLMAKDKTLRKKDKEGPECPPTVVVKEELGGDVKVESTSPKTFLESKEELSHSPEPCTKMTMRLRRNHSNAQFIESYVCRMCSRGDEDDKLLLCDGCDDNYHIFCLLPPLPEIPKGVWRCPKCVMAECKRPPEAFGFEQATREYTLQSFGEMADSFKADYFNMPVHMVPTELVEKEFWRLVNSIEEDVTVEYGADIHSKEFGSGFPVSDSKRHLTPEEEEYATSGWNLNVMPVLEQSVLCHINADISGMKVPWLYVGMVFSAFCWHIEDHWSYSINYLHWGEPKTWYGVPSLAAEHLEEVMKKLTPELFDSQPDLLHQLVTLMNPNTLMSHGVPVVRTNQCAGEFVITFPRAYHSGFNQGYNFAEAVNFCTADWLPAGRQCIEHYRRLRRYCVFSHEELICKMAACPEKLDLNLAAAVHKEMFIMVQEERRLRKALLEKGITEAEREAFELLPDDERQCIKCKTTCFLSALACYDCPDGLVCLSHINDLCKCSSSRQYLRYRYTLDELPAMLHKLKVRAESFDTWANKVRVALEVEDGRKRSLEELRALESEARERRFPNSELLQQLKNCLSEAEACVSRALGLVSGQEAG

Kd [1]: > 1500 µM
Binder: ARTK(Me3)QTARKSTGGKAPRK [H3K4me3 (1–18) peptide]

Kd [5]: 440 µM
koff [3]: 1.45 s⁻¹
koff [4]: 0.02 s⁻¹
Binder: Ac-QSVQPSKFNSYGRRAKRLQP-NH2 [KDM5C (199–218) peptide]
